Reference: patent US20170275357A1

Biological target: PDGFRα/PDGFRβ
Assay: cell-based or functional assay

% Inhibition of PDGFC-induced NHLF proliferation: 70% | % Inhibition of PDGFD-induced NHLF proliferation: 100%
B1: α/βVCV2 IgG1.1 (bispecific antibody)
heavy: EVQLVESGGGLVKPGGSLKLSCAASGFAFSSYAMSWVRQSPEKRLEWVATISSGGHYTFYPDSVKGRFTISRDNAKNTLYLQMSSLRSEDTAIYYCARRYYALDYWGQGTSVTVSSASTKGPSVFPLAPSSKSTSGGTAALGCLVKDYFPEPVTVSWNSGALTSGVHTFPAVLQSSGLYSLSSVVTVPSSSLGTQTYICNVNHKPSNTKVDKKVEPKSCGGGGSGGGGSEVQLQQSGPELVKTGASVKISCKASGYSFINHYMNWVKQSRGKSLEWIGYVSCYNGATGYNQKFKDKATFTVDTSSSTAYMQFNNLTSEDSAVYYCARRGFMEAMDYWGQGTSVTVSSEPKSSDKTHTCPPCPAPEAEGAPSVFLFPPKPKDTLMISRTPEVTCVVVDVSHEDPEVKFNWYVDGVEVHNAKTKPREEQYNSTYRVVSVLTVLHQDWLNGKEYKCKVSNKALPSSIEKTISKAKGQPREPQVYTLPPSRDELTKNQVSLTCLVKGFYPSDIAVEWESNGQPENNYKTTPPVLDSDGSFFLYSKLTVDKSRWQQGNVFSCSVMHEALHNHYTQKSLSLSPGK
light: DIVMTQSQKFMSTSLGDRVSVSCKASQNVLTNVAWYQQKPGQSPKTLIYSASYRYSGVPDRFTGSGSGTDFTLTISIVQSEDLAEYFCQQYNIYPWTFGGGTKLEIKRTVAAPSVFIFPPSDEQLKSGTASVVCLLNNFYPREAKVQWKVDNALQSGNSQESVTEQDSKDSTYSLSSTLTLSKADYEKHKVYACEVTHQGLSSPVTKSFNRGECGGGGSGGGGSDIVMTQSPFSLTVTVGEKVTMSCKSSQSLLNSRTRKNYLAWYQQKPGQSPKLLIYWASTRESGVPDRFTGSGSGTDFTLTISSVQAEDLAVYYCKQSYNLYTFGGGTKLEIK
